Laboratory results reported in PMC4013092.

Target: Mdb1 (UniProt O14079)
Assay: biotin-peptide streptavidin pull-down, Coomassie stain
Conditions: reference: unphosphorylated H2A peptide; sites S129

binding against the reference: gained
Substance: H2A.1 C-terminal 13 residues, 120-132 (from UniProt P04909) pS129 (γH2A) peptide
